Results published in paper PMC5069464.

Assays:
Details in all cases: glycan lost; control: wild type
[1] = puromycin chase, >250 kDa band at 48 hr
[2] = cell-attached single-channel recording, tsA201
[3] = whole-cell tail currents, Boltzmann fit
[4] = whole-cell pre-pulse protocol, Boltzmann fit
[5] = high-throughput patch (IonWorks Barracuda), peak current

## hCaV3.3 α1 subunit: R1346H
[1]
  degradation_or_half_life, other: fraction of pre-puromycin level: no change, 0.50 ± 0.12 vs 0.36 ± 0.08
[2]
  other: single-channel conductance, other: conductance: no change, 13.7 ± 0.6 vs 14.0 ± 0.8
[3]
  other: voltage dependence of activation, other: V1/2-negative: no change, −37.6 ± 0.99 vs −40.0 ± 0.98
[4]
  other: voltage dependence of inactivation, other: V1/2: no change, −69.4 ± 1.4 vs −67.1 ± 0.89
[5]
  other: channel current, other: median peak current: decreases, 0.56 vs 1.30
